# Starred links: 1 amine or outer side, 2 acyl side, 3 side chain; linkers in the order of their positions; H or OH if unused. Non-standard residues stand in square brackets, D forms with d. Groups on a side chain read outwards from the residue. No end group written: not given here. *: point of attachment. C20 diacid = O=C(O)CCCCCCCCCCCCCCCCCCC(=O)*; C18 diacid = O=C(O)CCCCCCCCCCCCCCCCC(=O)*; γGlu = O=C(O)[C@H](CCC(=O)[*:2])N[*:1]; εLys = N[C@@H](CCCCN[*:1])C(=O)[*:2]; Aib = CC(C)(N)C(=O)O
# B1: Compound No. 9 (peptide)
# peptide: Y[Aib]EGTFTSDYSIYLEK([εLys-εLys-γGlu-C18 diacid])QAAREFIEWLLAGGPSSGAPPPS-OH
# modifications: N-terminus assumed
# SMILES: CC[C@H](C)[C@H](NC(=O)[C@H](Cc1ccccc1)NC(=O)[C@H](CCC(=O)O)NC(=O)[C@H](CCCNC(=N)N)NC(=O)[C@H](C)NC(=O)[C@H](C)NC(=O)[C@H](CCC(N)=O)NC(=O)[C@H](CCCCNC(=O)[C@@H](N)CCCCNC(=O)[C@@H](N)CCCCNC(=O)CC[C@H](NC(=O)CCCCCCCCCCCCCCCCC(=O)O)C(=O)O)NC(=O)[C@H](CCC(=O)O)NC(=O)[C@H](CC(C)C)NC(=O)[C@H](Cc1ccc(O)cc1)NC(=O)[C@@H](NC(=O)[C@H](CO)NC(=O)[C@H](Cc1ccc(O)cc1)NC(=O)[C@H](CC(=O)O)NC(=O)[C@H](CO)NC(=O)[C@@H](NC(=O)[C@H](Cc1ccccc1)NC(=O)[C@@H](NC(=O)CNC(=O)[C@H](CCC(=O)O)NC(=O)C(C)(C)NC(=O)[C@@H](N)Cc1ccc(O)cc1)[C@@H](C)O)[C@@H](C)O)[C@@H](C)CC)C(=O)N[C@@H](CCC(=O)O)C(=O)N[C@@H](Cc1c[nH]c2ccccc12)C(=O)N[C@@H](CC(C)C)C(=O)N[C@@H](CC(C)C)C(=O)N[C@@H](C)C(=O)NCC(=O)NCC(=O)N1CCC[C@H]1C(=O)N[C@@H](CO)C(=O)N[C@@H](CO)C(=O)NCC(=O)N[C@@H](C)C(=O)N1CCC[C@H]1C(=O)N1CCC[C@H]1C(=O)N1CCC[C@H]1C(=O)N[C@@H](CO)C(=O)O
# B2: Compound No. 22 (peptide)
# peptide: Y[Aib]EGTFTSDYSILLEK([εLys-εLys-γGlu-C18 diacid])QAAREFVNWLLAGGPSSGAPPPS-OH
# modifications: N-terminus assumed
# SMILES: CC[C@H](C)[C@H](NC(=O)[C@H](CO)NC(=O)[C@H](Cc1ccc(O)cc1)NC(=O)[C@H](CC(=O)O)NC(=O)[C@H](CO)NC(=O)[C@@H](NC(=O)[C@H](Cc1ccccc1)NC(=O)[C@@H](NC(=O)CNC(=O)[C@H](CCC(=O)O)NC(=O)C(C)(C)NC(=O)[C@@H](N)Cc1ccc(O)cc1)[C@@H](C)O)[C@@H](C)O)C(=O)N[C@@H](CC(C)C)C(=O)N[C@@H](CC(C)C)C(=O)N[C@@H](CCC(=O)O)C(=O)N[C@@H](CCCCNC(=O)[C@@H](N)CCCCNC(=O)[C@@H](N)CCCCNC(=O)CC[C@H](NC(=O)CCCCCCCCCCCCCCCCC(=O)O)C(=O)O)C(=O)N[C@@H](CCC(N)=O)C(=O)N[C@@H](C)C(=O)N[C@@H](C)C(=O)N[C@@H](CCCNC(=N)N)C(=O)N[C@@H](CCC(=O)O)C(=O)N[C@@H](Cc1ccccc1)C(=O)N[C@H](C(=O)N[C@@H](CC(N)=O)C(=O)N[C@@H](Cc1c[nH]c2ccccc12)C(=O)N[C@@H](CC(C)C)C(=O)N[C@@H](CC(C)C)C(=O)N[C@@H](C)C(=O)NCC(=O)NCC(=O)N1CCC[C@H]1C(=O)N[C@@H](CO)C(=O)N[C@@H](CO)C(=O)NCC(=O)N[C@@H](C)C(=O)N1CCC[C@H]1C(=O)N1CCC[C@H]1C(=O)N1CCC[C@H]1C(=O)N[C@@H](CO)C(=O)O)C(C)C
# B3: Compound No. 23 (peptide)
# peptide: Y[Aib]EGTFTSDYSILLEK([εLys-εLys-γGlu-C18 diacid])QAAREFIQWLLAGGPSSGAPPPS-OH
# modifications: N-terminus assumed
# SMILES: CC[C@H](C)[C@H](NC(=O)[C@H](Cc1ccccc1)NC(=O)[C@H](CCC(=O)O)NC(=O)[C@H](CCCNC(=N)N)NC(=O)[C@H](C)NC(=O)[C@H](C)NC(=O)[C@H](CCC(N)=O)NC(=O)[C@H](CCCCNC(=O)[C@@H](N)CCCCNC(=O)[C@@H](N)CCCCNC(=O)CC[C@H](NC(=O)CCCCCCCCCCCCCCCCC(=O)O)C(=O)O)NC(=O)[C@H](CCC(=O)O)NC(=O)[C@H](CC(C)C)NC(=O)[C@H](CC(C)C)NC(=O)[C@@H](NC(=O)[C@H](CO)NC(=O)[C@H](Cc1ccc(O)cc1)NC(=O)[C@H](CC(=O)O)NC(=O)[C@H](CO)NC(=O)[C@@H](NC(=O)[C@H](Cc1ccccc1)NC(=O)[C@@H](NC(=O)CNC(=O)[C@H](CCC(=O)O)NC(=O)C(C)(C)NC(=O)[C@@H](N)Cc1ccc(O)cc1)[C@@H](C)O)[C@@H](C)O)[C@@H](C)CC)C(=O)N[C@@H](CCC(N)=O)C(=O)N[C@@H](Cc1c[nH]c2ccccc12)C(=O)N[C@@H](CC(C)C)C(=O)N[C@@H](CC(C)C)C(=O)N[C@@H](C)C(=O)NCC(=O)NCC(=O)N1CCC[C@H]1C(=O)N[C@@H](CO)C(=O)N[C@@H](CO)C(=O)NCC(=O)N[C@@H](C)C(=O)N1CCC[C@H]1C(=O)N1CCC[C@H]1C(=O)N1CCC[C@H]1C(=O)N[C@@H](CO)C(=O)O
# B4: Compound No. 2 (peptide)
# peptide: Y[Aib]EGTFTSDYSYYLEK([εLys-εLys-γGlu-C20 diacid])QAAQEFVNWLLAGGPSSGAPPPS-NH2
# modifications: N-terminus assumed
# SMILES: CC(C)C[C@H](NC(=O)[C@H](CC(C)C)NC(=O)[C@H](Cc1c[nH]c2ccccc12)NC(=O)[C@H](CC(N)=O)NC(=O)[C@@H](NC(=O)[C@H](Cc1ccccc1)NC(=O)[C@H](CCC(=O)O)NC(=O)[C@H](CCC(N)=O)NC(=O)[C@H](C)NC(=O)[C@H](C)NC(=O)[C@H](CCC(N)=O)NC(=O)[C@H](CCCCNC(=O)[C@@H](N)CCCCNC(=O)[C@@H](N)CCCCNC(=O)CC[C@H](NC(=O)CCCCCCCCCCCCCCCCCCC(=O)O)C(=O)O)NC(=O)[C@H](CCC(=O)O)NC(=O)[C@H](CC(C)C)NC(=O)[C@H](Cc1ccc(O)cc1)NC(=O)[C@H](Cc1ccc(O)cc1)NC(=O)[C@H](CO)NC(=O)[C@H](Cc1ccc(O)cc1)NC(=O)[C@H](CC(=O)O)NC(=O)[C@H](CO)NC(=O)[C@@H](NC(=O)[C@H](Cc1ccccc1)NC(=O)[C@@H](NC(=O)CNC(=O)[C@H](CCC(=O)O)NC(=O)C(C)(C)NC(=O)[C@@H](N)Cc1ccc(O)cc1)[C@@H](C)O)[C@@H](C)O)C(C)C)C(=O)N[C@@H](C)C(=O)NCC(=O)NCC(=O)N1CCC[C@H]1C(=O)N[C@@H](CO)C(=O)N[C@@H](CO)C(=O)NCC(=O)N[C@@H](C)C(=O)N1CCC[C@H]1C(=O)N1CCC[C@H]1C(=O)N1CCC[C@H]1C(=O)N[C@@H](CO)C(N)=O
# Columns and labels:
# human GLP-1 receptor = human GLP-1 receptor (human, UniProt P43220 24-463); test: cell-based or functional assay
# human GIP receptor = biological target: T1, human GIP receptor (human, UniProt P48546 22-466); test: cell-based or functional assay
# T1 sequence (looked up): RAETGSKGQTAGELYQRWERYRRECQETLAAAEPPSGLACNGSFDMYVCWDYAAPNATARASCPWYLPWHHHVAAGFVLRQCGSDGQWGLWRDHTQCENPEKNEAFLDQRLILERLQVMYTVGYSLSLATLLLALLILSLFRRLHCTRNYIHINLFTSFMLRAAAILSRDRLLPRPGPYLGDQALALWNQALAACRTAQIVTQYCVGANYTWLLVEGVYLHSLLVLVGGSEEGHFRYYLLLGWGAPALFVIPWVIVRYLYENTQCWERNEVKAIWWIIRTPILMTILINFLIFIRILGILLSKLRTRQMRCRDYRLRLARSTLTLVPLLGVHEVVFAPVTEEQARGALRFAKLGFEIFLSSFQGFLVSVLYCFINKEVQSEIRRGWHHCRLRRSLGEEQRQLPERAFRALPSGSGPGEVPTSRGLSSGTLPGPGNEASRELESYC
Binder,"hGLP-1R, CRE Luc 0% HSA EC50 (pM) (human GLP-1 receptor)","hGLP-1R, CRE Luc 1% HSA EC50 (pM) (human GLP-1 receptor)","hGIPR, CRE Luc 0% HSA EC50 (pM) (human GIP receptor)","hGIPR, CRE Luc 1% HSA EC50 (pM) (human GIP receptor)"
B1,3.8,279,,
B2,2.8,170,6.2,169
B3,4.1,118,6.7,134
B4,6,900,3.8,275

# From patent publication US20230272029A1, “CO-AGONISTS AT GLP-1 AND GIP RECEPTORS SUITABLE FOR ORAL DELIVERY” (Novo Nordisk A/S, priority 2020, published 2023)
